Measured values as given in patent US20210155689A1 (SHANGHAI PHARMAEXPLORER, published 2021).
Where “and” joins values, the source holds several entries; their conditions need not be identical. Equal entries are not always repeated. Values belong to the substance of their own block, whether it stands above or below them.

Columns and labels:
[1] = target: mouse LAG-3 protein with hFc tag (mLAG-3-hFc protein) (mouse; human) (UniProt Q61790); test: ELISA, mLAG-3-hFc coated; 66.6670 nM
[2] = target: human LAG-3 protein (full length, on cells) (human) (UniProt P18627); test: cell-based or functional assay
[3] = target: hFc tagged monkey LAG-3 protein (cLAG-3-hFc protein) (monkey; human); test: ELISA, cLAG-3-hFc coated; 0.0067 nM
[4] = target: mouse LAG-3 protein with hFc tag (mLAG-3-hFc protein) (mouse; human) (UniProt Q61790); test: ELISA, mLAG-3-hFc coated; 0.0001 nM
[5] = target: human LAG-3 protein (full length, on cells) (human) (UniProt P18627); test: FACS on HEK293-hLAG-3 cells, antibody 8 nM
[6] = target: human LAG-3 protein with hFc tag (hLAG-3-hFc protein) (human) (UniProt P18627); test: ELISA, hLAG-3-hFc coated; 0.0667 nM
[7] = target: human LAG-3 protein (full length, on cells) (human) (UniProt P18627); test: FACS on HEK293-hLAG-3 cells, antibody 0.013 nM
[8] = target: human LAG-3 protein with hFc tag (hLAG-3-hFc protein) (human) (UniProt P18627); test: ELISA, hLAG-3-hFc coated; 0.0067 nM
[9] = target: hFc tagged monkey LAG-3 protein (cLAG-3-hFc protein) (monkey; human); test: ELISA, cLAG-3-hFc coated; 0.0667 nM
[10] = target: hFc tagged monkey LAG-3 protein (cLAG-3-hFc protein) (monkey; human); test: ELISA, cLAG-3-hFc coated; 0.0001 nM
[11] = target: mouse LAG-3 protein with hFc tag (mLAG-3-hFc protein) (mouse; human) (UniProt Q61790); test: ELISA, mLAG-3-hFc coated; 0.0667 nM
[12] = target: human LAG-3 protein (full length, on cells) (human) (UniProt P18627); test: FACS on HEK293-hLAG-3 cells, antibody 0 nM (background)
[13] = target: human LAG-3-hFc protein (human) (UniProt P18627); test: competition FACS: inhibition of LAG-3-hFc binding to MHC II on Raji cells, antibody 0.274 nM
[14] = target: human LAG-3-hFc protein (human) (UniProt P18627); test: competition FACS: inhibition of LAG-3-hFc binding to MHC II on Raji cells, antibody 2.469 nM
[15] = target: human LAG-3-hFc protein (human) (UniProt P18627); test: competition FACS: inhibition of LAG-3-hFc binding to MHC II on Raji cells, antibody 0.823 nM
[16] = target: human LAG-3-hFc protein (human) (UniProt P18627); test: competition FACS: inhibition of LAG-3-hFc binding to MHC II on Raji cells, antibody 22.222 nM
[17] = target: mouse LAG-3 protein with hFc tag (mLAG-3-hFc protein) (mouse; human) (UniProt Q61790); test: ELISA, mLAG-3-hFc coated; 0.6667 nM
[18] = target: human LAG-3 protein with hFc tag (hLAG-3-hFc protein) (human) (UniProt P18627); test: ELISA, hLAG-3-hFc coated; 0.6667 nM
[19] = target: human LAG-3 protein with hFc tag (hLAG-3-hFc protein) (human) (UniProt P18627); test: ELISA, hLAG-3-hFc coated; 66.6670 nM
[20] = target: hFc tagged monkey LAG-3 protein (cLAG-3-hFc protein) (monkey; human); test: ELISA, cLAG-3-hFc coated; 0.0007 nM
[21] = target: human LAG-3 protein (full length, on cells) (human) (UniProt P18627); test: FACS on HEK293-hLAG-3 cells, antibody 0.064 nM
[22] = target: human LAG-3-hFc protein (human) (UniProt P18627); test: competition FACS: inhibition of LAG-3-hFc binding to MHC II on Raji cells, antibody 0.000 nM
[23] = target: human LAG-3 protein (full length, on cells) (human) (UniProt P18627); test: FACS on HEK293-hLAG-3 cells, antibody 1.6 nM
[24] = target: human LAG-3-hFc protein (human) (UniProt P18627); test: competition FACS: inhibition of LAG-3-hFc binding to MHC II on Raji cells, antibody 7.407 nM
[25] = target: hFc tagged monkey LAG-3 protein (cLAG-3-hFc protein) (monkey; human); test: ELISA, cLAG-3-hFc coated; 0.0000 nM
[26] = target: human LAG-3 protein with hFc tag (hLAG-3-hFc protein) (human) (UniProt P18627); test: ELISA, hLAG-3-hFc coated; 6.6667 nM
[27] = target: mouse LAG-3 protein with hFc tag (mLAG-3-hFc protein) (mouse; human) (UniProt Q61790); test: ELISA, mLAG-3-hFc coated; 0.0007 nM
[28] = target: human LAG-3-hFc protein (human) (UniProt P18627); test: competition FACS: inhibition of LAG-3-hFc binding to MHC II on Raji cells, antibody 200.000 nM
[29] = target: human LAG-3 protein (full length, on cells) (human) (UniProt P18627); test: FACS on HEK293-hLAG-3 cells, antibody 0.32 nM
[30] = target: human LAG-3 protein with hFc tag (hLAG-3-hFc protein) (human) (UniProt P18627); test: ELISA, hLAG-3-hFc coated; 0.0001 nM
[31] = target: mouse LAG-3 protein with hFc tag (mLAG-3-hFc protein) (mouse; human) (UniProt Q61790); test: ELISA, mLAG-3-hFc coated; 0.0067 nM
[32] = target: human LAG-3-hFc protein (human) (UniProt P18627); test: competition FACS: inhibition of LAG-3-hFc binding to MHC II on Raji cells, antibody 66.667 nM
[33] = target: hFc tagged monkey LAG-3 protein (cLAG-3-hFc protein) (monkey; human); test: ELISA, cLAG-3-hFc coated; 6.6667 nM
[34] = target: human LAG-3 protein with hFc tag (hLAG-3-hFc protein) (human) (UniProt P18627); test: ELISA, hLAG-3-hFc coated; 0.0007 nM
[35] = target: hFc tagged monkey LAG-3 protein (cLAG-3-hFc protein) (monkey; human); test: ELISA, cLAG-3-hFc coated; 0.6667 nM
[36] = target: mouse LAG-3 protein with hFc tag (mLAG-3-hFc protein) (mouse; human) (UniProt Q61790); test: ELISA, mLAG-3-hFc coated; 6.6667 nM
[37] = target: hFc tagged monkey LAG-3 protein (cLAG-3-hFc protein) (monkey; human); test: ELISA, cLAG-3-hFc coated; 66.6670 nM
[38] = target: human LAG-3 protein with hFc tag (hLAG-3-hFc protein) (human) (UniProt P18627); test: ELISA, hLAG-3-hFc coated; 0.0000 nM
MHC II on Raji cells [39] = test: FACS, Raji cells; 66.7 ug/ml
MHC II on Raji cells [40] = test: FACS, Raji cells; 0.8 ug/ml
MHC II on Raji cells [41] = test: FACS, Raji cells; 0 ug/ml
MHC II on Raji cells [42] = test: FACS, Raji cells; 22.2 ug/ml
MHC II on Raji cells [43] = test: FACS, Raji cells; 200 ug/ml
MHC II on Raji cells [44] = test: FACS, Raji cells; 0.1 ug/ml
MHC II on Raji cells [45] = test: FACS, Raji cells; 0.3 ug/ml
MHC II on Raji cells [46] = test: FACS, Raji cells; 2.5 ug/ml
MHC II on Raji cells [47] = test: FACS, Raji cells; 7.4 ug/ml
[48] = target: human LAG-3 protein with hFc tag (hLAG-3-hFc protein) (human) (UniProt P18627); test: ELISA, hLAG-3-hFc coated 1 ug/ml; 0.0480 ug/mL
[49] = target: human LAG-3 protein with hFc tag (hLAG-3-hFc protein) (human) (UniProt P18627); test: ELISA, hLAG-3-hFc coated 1 ug/ml; 0.2400 ug/mL
[50] = target: human LAG-3 protein with hFc tag (hLAG-3-hFc protein) (human) (UniProt P18627); test: ELISA, hLAG-3-hFc coated 1 ug/ml; 0.0019 ug/mL
[51] = target: human LAG-3 protein with hFc tag (hLAG-3-hFc protein) (human) (UniProt P18627); test: ELISA, hLAG-3-hFc coated 1 ug/ml; 0.0096 ug/mL
[52] = target: human LAG-3 protein with hFc tag (hLAG-3-hFc protein) (human) (UniProt P18627); test: ELISA, hLAG-3-hFc coated 1 ug/ml; 6.0000 ug/mL
[53] = target: human LAG-3 protein with hFc tag (hLAG-3-hFc protein) (human) (UniProt P18627); test: ELISA, hLAG-3-hFc coated 1 ug/ml; 30.0000 ug/mL
[54] = target: human LAG-3 protein with hFc tag (hLAG-3-hFc protein) (human) (UniProt P18627); test: ELISA, hLAG-3-hFc coated 1 ug/ml; 0.0000 ug/mL
[55] = target: human LAG-3 protein with hFc tag (hLAG-3-hFc protein) (human) (UniProt P18627); test: ELISA, hLAG-3-hFc coated 1 ug/ml; 1.2000 ug/mL

Sequence of mouse LAG-3 protein with hFc tag (mLAG-3-hFc protein) (mouse; human) (Q61790 24-442): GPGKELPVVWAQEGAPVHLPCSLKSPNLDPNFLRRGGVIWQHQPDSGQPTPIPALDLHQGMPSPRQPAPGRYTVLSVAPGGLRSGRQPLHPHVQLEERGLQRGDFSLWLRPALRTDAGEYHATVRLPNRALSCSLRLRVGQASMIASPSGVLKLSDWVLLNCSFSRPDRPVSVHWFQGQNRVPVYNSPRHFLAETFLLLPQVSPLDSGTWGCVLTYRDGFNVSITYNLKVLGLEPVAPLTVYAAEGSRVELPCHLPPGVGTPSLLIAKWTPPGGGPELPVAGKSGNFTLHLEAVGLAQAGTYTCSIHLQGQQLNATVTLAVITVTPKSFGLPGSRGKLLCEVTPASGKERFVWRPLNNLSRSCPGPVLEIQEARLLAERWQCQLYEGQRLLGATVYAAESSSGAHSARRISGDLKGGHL
Sequence of hFc tagged monkey LAG-3 protein (cLAG-3-hFc protein) (monkey; human) (chain, as listed by the source): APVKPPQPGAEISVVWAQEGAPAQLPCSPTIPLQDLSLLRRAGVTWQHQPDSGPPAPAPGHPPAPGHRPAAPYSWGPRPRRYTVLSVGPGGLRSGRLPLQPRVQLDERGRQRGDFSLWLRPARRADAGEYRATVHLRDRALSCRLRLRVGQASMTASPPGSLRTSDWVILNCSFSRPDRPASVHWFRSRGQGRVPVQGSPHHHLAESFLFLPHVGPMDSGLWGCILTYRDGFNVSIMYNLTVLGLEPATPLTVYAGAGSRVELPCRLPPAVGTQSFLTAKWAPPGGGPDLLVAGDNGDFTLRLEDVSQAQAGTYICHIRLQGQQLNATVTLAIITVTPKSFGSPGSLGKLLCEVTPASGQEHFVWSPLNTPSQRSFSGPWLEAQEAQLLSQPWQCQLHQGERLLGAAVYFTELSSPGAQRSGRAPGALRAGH
Sequence of human LAG-3 protein with hFc tag (hLAG-3-hFc protein) (human) (P18627 23-450): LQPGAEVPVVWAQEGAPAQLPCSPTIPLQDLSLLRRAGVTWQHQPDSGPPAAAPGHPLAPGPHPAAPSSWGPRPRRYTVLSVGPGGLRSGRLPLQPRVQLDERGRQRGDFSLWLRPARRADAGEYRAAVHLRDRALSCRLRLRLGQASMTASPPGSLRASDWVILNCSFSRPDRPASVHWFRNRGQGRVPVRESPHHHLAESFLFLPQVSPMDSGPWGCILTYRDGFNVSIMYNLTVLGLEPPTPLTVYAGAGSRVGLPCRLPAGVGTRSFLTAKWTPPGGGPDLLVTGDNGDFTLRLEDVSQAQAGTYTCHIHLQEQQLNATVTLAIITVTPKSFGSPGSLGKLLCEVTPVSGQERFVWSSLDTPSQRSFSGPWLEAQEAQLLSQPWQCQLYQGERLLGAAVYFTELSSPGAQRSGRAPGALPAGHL
Sequence of human LAG-3-hFc protein (human) (P18627 23-450): as above
Sequence of human LAG-3 protein (full length, on cells) (human) (P18627 23-525 limits assumed): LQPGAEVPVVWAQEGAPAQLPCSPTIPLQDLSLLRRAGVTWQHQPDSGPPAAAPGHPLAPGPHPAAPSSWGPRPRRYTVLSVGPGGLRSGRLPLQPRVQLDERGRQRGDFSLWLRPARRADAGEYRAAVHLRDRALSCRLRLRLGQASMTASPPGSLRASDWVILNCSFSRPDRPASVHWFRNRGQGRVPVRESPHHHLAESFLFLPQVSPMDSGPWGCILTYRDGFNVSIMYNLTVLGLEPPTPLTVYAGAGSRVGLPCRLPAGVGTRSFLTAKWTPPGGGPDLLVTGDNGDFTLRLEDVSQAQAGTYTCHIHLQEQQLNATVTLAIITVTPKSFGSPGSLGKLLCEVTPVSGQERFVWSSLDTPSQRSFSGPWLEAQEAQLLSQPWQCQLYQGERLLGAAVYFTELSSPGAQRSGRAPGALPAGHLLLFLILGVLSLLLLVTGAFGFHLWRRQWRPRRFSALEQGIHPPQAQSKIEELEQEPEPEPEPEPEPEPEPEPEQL

OD450 [1]: 0.56 OD450 | IL-2 production, pg/ml; antibody 0.0032 ug/ml, N = 1 [2]: 144 pg/mL | IL-2 production, pg/ml; antibody 0.0032 ug/ml, N = 2 [2]: 123 pg/mL | IL-2 production, pg/ml; antibody 0.016 ug/ml, N = 1 [2]: 141 pg/mL | IL-2 production, pg/ml; antibody 0.016 ug/ml, N = 2 [2]: 143 pg/mL | IL-2 production, pg/ml; antibody 0.08 ug/ml, N = 1 [2]: 157 pg/mL | IL-2 production, pg/ml; antibody 0.08 ug/ml, N = 2 [2]: 145 pg/mL | IL-2 production, pg/ml; antibody 0.4 ug/ml, N = 1 [2]: 159 pg/mL | IL-2 production, pg/ml; antibody 0.4 ug/ml, N = 2 [2]: 179 pg/mL | IL-2 production, pg/ml; antibody 2 ug/ml, N = 1 [2]: 164 pg/mL | IL-2 production, pg/ml; antibody 2 ug/ml, N = 2 [2]: 162 pg/mL | IL-2 production, pg/ml; antibody 10 ug/ml, N = 1 [2]: 142 pg/mL | IL-2 production, pg/ml; antibody 10 ug/ml, N = 2 [2]: 168 pg/mL | OD450 [3]: 0.19 OD450 | OD450 [4]: 0.08 OD450 | Mean fluorescence intensity [5]: 3 MFI | OD450 [6]: 0.11 OD450 | Mean fluorescence intensity [7]: 3 MFI | OD450 [8]: 0.13 OD450 | OD450 [9]: 0.14 OD450 | OD450 [10]: 0.14 OD450 | OD450 [11]: 0.08 OD450 | Mean fluorescence intensity [12]: 3 MFI | Inhibition rate (%) [13]: 0% | Inhibition rate (%) [14]: 3% | Inhibition rate (%) [15]: 2% | Inhibition rate (%) [16]: 0% | OD450 [17]: 0.09 OD450 | OD450 [18]: 0.14 OD450 | OD450 [19]: 1.17 OD450 | OD450 [20]: 0.13 OD450 | Mean fluorescence intensity [21]: 3 MFI | Inhibition rate (%) [22]: 0% | Mean fluorescence intensity [23]: 3 MFI | Inhibition rate (%) [24]: 1% | OD450 [25]: 0.13 OD450 | OD450 [26]: 0.29 OD450 | OD450 [27]: 0.07 OD450 | Inhibition rate (%) [28]: 1% | Mean fluorescence intensity [29]: 3 MFI | OD450 [30]: 0.1 OD450 | OD450 [31]: 0.08 OD450 | Inhibition rate (%) [32]: 4% | OD450 [33]: 0.29 OD450 | OD450 [34]: 0.1 OD450 | OD450 [35]: 0.18 OD450 | OD450 [36]: 0.18 OD450 | OD450 [37]: 1.16 OD450 | OD450 [38]: 0.11 OD450
Substance: hIgG control (human IgG) (antibody)

Mean fluorescence value (MHC II on Raji cells [39]): 28 MFI | Mean fluorescence value (MHC II on Raji cells [40]): 12 MFI | Mean fluorescence value (MHC II on Raji cells [41]): 13 MFI | Mean fluorescence value (MHC II on Raji cells [42]): 20 MFI | Mean fluorescence value (MHC II on Raji cells [43]): 21 MFI | Mean fluorescence value (MHC II on Raji cells [44]): 13 MFI | Mean fluorescence value (MHC II on Raji cells [45]): 11 MFI | Mean fluorescence value (MHC II on Raji cells [46]): 14 MFI | Mean fluorescence value (MHC II on Raji cells [47]): 18 MFI
Substance: hFc (control protein of Table 1)

OD450 [48]: 0.06 OD450 | OD450 [49]: 0.07 OD450 and 0.06 OD450 | OD450 [50]: 0.06 OD450 | OD450 [51]: 0.06 OD450 | OD450 [52]: 0.09 OD450 | OD450 [53]: 0.16 OD450 and 0.14 OD450 | OD450 [54]: 0.06 OD450 | OD450 [55]: 0.07 OD450 and 0.06 OD450
Substance: Negative protein (control of Table 2)
